Assay results as given in the supplement of paper PMC12764529.
± gives the half width of the 95% confidence interval.

Tests used:
[1] = folding stability dG unfold (combined trypsin and chymotrypsin); higher = more stable
Summary of the method: (§1)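 Unfolding free energy was derived, per protease or combined, by relating Bayesian-fitted K50 values from sequencing counts to a sequence-predicted unfolded-state K50 and a shared folded-state K50. The underlying digests exposed cysteine-free mini-proteins under 80 residues, in a PA-tagged cDNA display construct, to trypsin and chymotrypsin at 11 threefold-diluted concentrations and to a no-protease condition. A filter kept only designs with AlphaFold2 dimer inter-PAE above 15.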

[2] = folding stability dG unfold from trypsin proteolysis; higher = more stable
Experimental: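 Folding stability of de novo designed mini-proteins (<80 aa, no Cys; designed by TrROS, TrMRF, ProteinMPNN and the joint model) was measured by cDNA display proteolysis with trypsin and chymotrypsin. Each protease was used at 11 concentrations in a threefold dilution series plus a no-protease condition. K50 was inferred by Bayesian fitting of sequencing counts, and dG unfold was derived against a sequence-predicted unfolded-state K50 (Tsuboyama et al. method). Sequences shown include variable-length N-terminal GS-type padding (SAGGSAGG...) inside a display construct carrying a PA tag. Rows were kept only if the AF2 dimer inter-PAE was >15, to exclude likely homo-oligomers.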

[3] = folding stability dG unfold from chymotrypsin proteolysis; higher = more stable
Summary of the method: as §1

For “SAGGSAGGSAGREEVEEAIRAGETVTLEEKSPEGVIPVITVRAEFPDPDKVLVETEVKPLSAGGSAGGSAGG [r11_710_JUSTAS]”, the “folding stability dG unfold” value [1] was -2.7 ± 1.34 kJ/mol and the “folding stability dG unfold” value [2] was 1.9 ± 0.347 kJ/mol.
For “SAGGSAGGSASAPADETLTAELTSPESDERYTVLVTPEGMTAVDEAGRTTPLSPAVLVSVTAPSAGGSAGGS [r20_35_JUSTAS]”, the “folding stability dG unfold” value [1] was 0.391 ± 0.314 kJ/mol and the “folding stability dG unfold” value [2] was 3.61 ± 0.142 kJ/mol.
For “SAGGSAGGSAGGSKKTLPFPSVEDVVKYLKDLGLKDVKVDLPPGDLTINLDEIEEALKESAGGSAGGSAGGS [r4_101_TrMRF]”, the “folding stability dG unfold” value [1] was under -4.18 kJ/mol and the “folding stability dG unfold” value [2] was -4 ± 2.38 kJ/mol.
For “SAGGSAGGSAGGSGSSIPIVVEEKPEVSEDPSRVVLTTKIILKDPNGNSIETITEVELKSAGGSAGGSAGGS [r4_75_JUSTAS]”, the “folding stability dG unfold” value [1] was under -4.18 kJ/mol and the “folding stability dG unfold” value [2] was -2.06 ± 0.276 kJ/mol.
In the case of “SAGGSAGGSAGGMPELTVETEGFPDGSYRVVVTNPGTGELVAVAERPSSTSVADFAKELASAGGSAGGSAGG [r7_633_TrMRF]”, the “folding stability dG unfold” value [1] is reported as under -4.18 kJ/mol and the “folding stability dG unfold” value [2] is reported as -2.88 ± 0.544 kJ/mol.
With “SAGGSAGGSAGKITIHMDPEGNYMVKTPGNERQFDSPEDADELADEFLLNGLPIEIHPHPSAGGSAGGSAGG [r17_35_TrROS]” the “folding stability dG unfold” value [1] was under -4.18 kJ/mol and the “folding stability dG unfold” value [2] was -3.15 ± 1.51 kJ/mol.
In the case of “SAGGMTVTVPREGPVTEEDVEKIAAELAAQGLKEVPLVVIETEKGSLPDGRPTELVRERTYYYEYPESAGGS [r16_44_JUSTAS]”, the “folding stability dG unfold” value [1] is reported as under -4.18 kJ/mol and the “folding stability dG unfold” value [2] is reported as -1.28 ± 1.3 kJ/mol.
With “SAGGSQEFKFEILVPFDSPEEAKEEAEEIAKILQDHGLDVKVKVERDPNGAVKVPPTIRVDPEDGRPLSAGG [r13_697_TrROS]” the “folding stability dG unfold” value [1] was -0.988 ± 1.3 kJ/mol and the “folding stability dG unfold” value [2] was 1.66 ± 0.418 kJ/mol.
With “SAGGSAGGSAGGSAVERIIKEMREKFPPGKEVEIPIEVRTDNGNYVPIEIEFRIPPDQPSAGGSAGGSAGGS [r10_11_TrROS]” the “folding stability dG unfold” value [1] was under -4.18 kJ/mol and the “folding stability dG unfold” value [2] was -2.33 ± 1.67 kJ/mol.
In the case of “SAGSMTVSESTENGVRTTTVTLPSRPLTVTVTFPDGKVTATTTDPAAPEAATTTPLGTPAVETLIAELSSAG [r14_716_JUSTAS]”, the “folding stability dG unfold” value [1] is reported as -2.55 ± 1.26 kJ/mol and the “folding stability dG unfold” value [2] is reported as 0.347 ± 0.213 kJ/mol.
In the case of “SAGGSAGGSAPKPKIEPVNNTITIDIPPKENVQIFFPNGKQEEFPVEPGKEIKIPPGMYLYPSAGGSAGGSA [r18_452_TrROS]”, the “folding stability dG unfold” value [1] is reported as under -4.18 kJ/mol and the “folding stability dG unfold” value [2] is reported as -1.49 ± 0.23 kJ/mol.
In the case of “SAGGSAGGSAGGMEGFTAVTFTTTTSSNGTRTTTVTTTTPDGTVTTTTTTTPVTPPPNTASAGGSAGGSAGG [r11_998_JUSTAS]”, the “folding stability dG unfold” value [1] is reported as 0.647 ± 0.586 kJ/mol and the “folding stability dG unfold” value [2] is reported as 2.1 ± 0.293 kJ/mol.
For “SAGGSAPVTPDELVERVMQYIQGQNGMPPGDTPEQMRDNGMPIKIPITVEDPDGEPIAEVEIEFPMSAGGSA [r15_391_TrROS]”, the “folding stability dG unfold” value [1] was -0.389 ± 1 kJ/mol and the “folding stability dG unfold” value [2] was 2.66 ± 0.226 kJ/mol.
In the case of “SMLTSPDGTSVTIETKVSPSAGPLPPFFEQTYDPSKDTITVNAPASPEEVAAIRAAPGLETLAVTFTPAESA [r9_827_JUSTAS]”, the “folding stability dG unfold” value [1] is reported as under -4.18 kJ/mol and the “folding stability dG unfold” value [2] is reported as -3.66 ± 0.962 kJ/mol.
For “SAGGANLKIDIERHPGNGNINATIKFDGEEITVPATLSDIEEIIDEIIRVKPVPYYEKDGKLKPHWASAGGS [r8_332_TrROS]”, the “folding stability dG unfold” value [1] was under -4.18 kJ/mol and the “folding stability dG unfold” value [2] was -3.27 ± 0.795 kJ/mol.
For “SAGGSAKLEINIIIPGMPPERAKRKARNIAAELRKQGLPKENIKDVDIKVIVMPWRRDPDNKWKPMSAGGSA [r15_684_TrROS]”, the “folding stability dG unfold” value [1] was -0.193 ± 0.502 kJ/mol and the “folding stability dG unfold” value [2] was 2.12 ± 0.331 kJ/mol.
For “SKTVEIPIRNPNGMQVNIMANPEKGKVMIHMGNNMPFENIKKALRELLPPGKDVDITTHPNGMAVIELKPSA [r9_933_TrROS]”, the “folding stability dG unfold” value [1] was -3.07 ± 1.8 kJ/mol and the “folding stability dG unfold” value [2] was -1.16 ± 0.795 kJ/mol.
For “SPIILPGASTVTINATVTVEPRDPATGTVLSSRDLPVPVTVTTNADGTVTITVDVPADVPADAAVTVDLTSA [r9_90_JUSTAS]”, the “folding stability dG unfold” value [1] was -1.41 ± 0.418 kJ/mol and the “folding stability dG unfold” value [2] was 1 ± 0.0753 kJ/mol.
For “SAGMVKVSLEKNPNGTPVVTVDVNEEGGPPVTVTLPVDPNETLSKVSAVLKKEGYPLPAGKKISELLSSAGG [r19_263_JUSTAS]”, the “folding stability dG unfold” value [1] was under -4.18 kJ/mol and the “folding stability dG unfold” value [2] was -3.01 ± 1.05 kJ/mol.
For “SIERPGGEPVTLTVTVERPPGVRTTRTFTTPASELEARRGRDVTDEEIIAAVKEELAAAGDRALAVTVDRTS [r1_338_JUSTAS]”, the “folding stability dG unfold” value [1] was under -4.18 kJ/mol and the “folding stability dG unfold” value [2] was -3.38 ± 2.85 kJ/mol.
In the case of “SAGGSAGGSREIKIDDFERHNGYYYITVEIKDPNNGKKRPLEIPYPPNQPNADRFAKDIADELSAGGSAGGS [r12_415_TrROS]”, the “folding stability dG unfold” value [1] is reported as under -4.18 kJ/mol and the “folding stability dG unfold” value [2] is reported as -3.14 ± 1.8 kJ/mol.
With “SAGGSAGGSPRYQIPFEFPNGRNLYIQIERDPEEGQVKVDIMFPDGGTKEITVPPGEEIKIPWSAGGSAGGS [r12_922_TrROS]” the “folding stability dG unfold” value [2] was -2.76 ± 2.59 kJ/mol.
For “SAGGSAGGSAGGSMTRVFVRKPDYWLEVEEYPDPKNPDRIRLTVKKKIPLSEVTPEELASAGGSAGGSAGGS [r4_316_JUSTAS]”, the “folding stability dG unfold” value [2] was -0.168 ± 1.09 kJ/mol.
In the case of “SAGGSAKRVAFIGGGPEIEKVIKEAEKNGFEAVPFDGTPDEFLDALKKNFPDVKQIVFPDGKVLDASAGGSA [r15_712_TrMRF]”, the “folding stability dG unfold” value [3] is reported as 0.802 ± 0.544 kJ/mol and the “folding stability dG unfold” value [1] is reported as -0.559 ± 0.544 kJ/mol.
In the case of “SAKKHIPIPMDDPENLKKAIEEALENAENGKKVEIPIRSPDGPVWIEVDPKKKDIKIRNPGNGEERKIKSAG [r14_423_TrROS]”, the “folding stability dG unfold” value [3] is reported as 0.954 ± 0.351 kJ/mol and the “folding stability dG unfold” value [1] is reported as -0.408 ± 2.22 kJ/mol.
In the case of “SAGGSAGGSAGGSSARVPFPATGAVLEVRVTPDGRPRVRVFNPATGEVVEFPPGAEVGVSAGGSAGGSAGGS [r4_158_TrMRF]”, the “folding stability dG unfold” value [3] is reported as 3.19 ± 0.151 kJ/mol and the “folding stability dG unfold” value [1] is reported as 0.108 ± 0.544 kJ/mol.
In the case of “SAGGSAGGSAGGPVFDMSNFEEVKEAAEKAGIDVVEEDPEKNTIYVDPSKPELIKEAIQKSAGGSAGGSAGG [r7_285_JUSTAS]”, the “folding stability dG unfold” value [3] is reported as 3.66 ± 0.586 kJ/mol and the “folding stability dG unfold” value [1] is reported as 0.857 ± 1.67 kJ/mol.
In the case of “SAGGSAGGSASYSVTISPEERIEPVVDYKTGERRLVERRRVVVTADPKLSPALKAAILAALSSAGGSAGGSA [r18_438_JUSTAS]”, the “folding stability dG unfold” value [3] is reported as 0.601 ± 0.837 kJ/mol and the “folding stability dG unfold” value [1] is reported as -0.993 ± 0.837 kJ/mol.
In the case of “SAGGSMTVSTAPDGTLKVYDPATGKLNPLPVPPVPLVVSRSVQPDKGVVITTTTTPSGEVTVSTTALSAGGS [r16_453_JUSTAS]”, the “folding stability dG unfold” value [3] is reported as 1.65 ± 0.251 kJ/mol and the “folding stability dG unfold” value [1] is reported as -0.667 ± 0.314 kJ/mol.
For “SMNVTEEVTVEELPSGEVLTETVVTEPSGVTTVTTTLASPPDRPVVETRTTTYPPDGSSTETSTVAPLPGSA [r9_1179_JUSTAS]”, the “folding stability dG unfold” value [3] was 2.12 ± 0.226 kJ/mol and the “folding stability dG unfold” value [1] was 0.0305 ± 0.962 kJ/mol.
For “SAGGSAGGSAGKALVFDSPEDLVEKLKENGVELTDIAEVDAPGGPVVLAPIEGIPKPGFGSAGGSAGGSAGG [r11_141_TrMRF]”, the “folding stability dG unfold” value [3] was 2.65 ± 0.272 kJ/mol and the “folding stability dG unfold” value [1] was 1.17 ± 0.669 kJ/mol.
For “SAGGSAGGSAGAVTVTVDAAPDPLPDREYVVVTVERTLPSGEVLAESRVFDRAEEALEAASAGGSAGGSAGG [r11_792_TrMRF]”, the “folding stability dG unfold” value [3] was 1.81 ± 0.586 kJ/mol and the “folding stability dG unfold” value [1] was -0.876 ± 1.09 kJ/mol.
With “SAGGMKVEDFVLELPTPEGKKILVEAVKVTTDPEAGLISVELKTPDKKEKLTLSPDEYVRGPSPEEFLKSAG [r5_15_JUSTAS]” the “folding stability dG unfold” value [3] was -1.57 ± 0.795 kJ/mol and the “folding stability dG unfold” value [1] was -2.35 ± 1.38 kJ/mol.
For “SAGGSMPPVVEPATLTLGNGPATQLQRYPGVELVVYRRPPENTILFLSSSGQVLEERKVSPETPVSELSAGG [r13_507_JUSTAS]”, the “folding stability dG unfold” value [3] was -1.33 ± 1.3 kJ/mol and the “folding stability dG unfold” value [1] was under -4.18 kJ/mol.
In the case of “SAGGSAGGSPKPKRRTIEFPLKVPPGMSPEDVADELKQQPGFEIDEIDEVDPDEGWVKISVELSAGGSAGGS [r12_712_TrROS]”, the “folding stability dG unfold” value [3] is reported as -1.58 ± 0.544 kJ/mol and the “folding stability dG unfold” value [1] is reported as under -4.18 kJ/mol.
With “SAMLTLPVESTDPARVEAAIAEARALAAQGARVEVPVRTPEGPLRFLVDPATGRVVRTDPATGATEVLPSAG [r14_423_JUSTAS]” the “folding stability dG unfold” value [3] was 0.672 ± 0.711 kJ/mol and the “folding stability dG unfold” value [1] was -1.02 ± 0.544 kJ/mol.
With “SAGGSAGGSAGPWVPIAPGPNGMWIWAEPDPDKFTIRMFPMSPDGKIPDVQEHEIPPEDFSAGGSAGGSAGG [r11_88_TrROS]” the “folding stability dG unfold” value [3] was 0.653 ± 0.92 kJ/mol and the “folding stability dG unfold” value [1] was -0.904 ± 0.711 kJ/mol.
